In assay [1] the target is DIP-β ectodomain (isoform C Ile82-Glu408) (Drosophila melanogaster). Description: SPR. In general terms: Surface plasmon resonance follows binding to a sensor surface in real time, without labels.
The target of assay [2] is DIP-α ectodomain (isoform A Phe40-Pro341) (Drosophila melanogaster). The assay can be described thus: SPR.
For assay [3], the target named is DIP-ζ ectodomain (isoform A Glu111-Tyr412) (Drosophila melanogaster). Description: AUC.
Assay [4] has as its target DIP-θ ectodomain (Asp128-Pro423) (Drosophila melanogaster). Description: SPR.
For assay [5], the target named is DIP-η ectodomain (isoform B Gln31-Pro338) (Drosophila melanogaster). Description: SPR.
Assay [6] addresses DIP-ε ectodomain (Glu50-Ser351) (Drosophila melanogaster). The assay can be described thus: SPR.
The target of assay [7] is DIP-ζ ectodomain (isoform A Glu111-Tyr412) (Drosophila melanogaster). The assay can be described thus: SPR.
For assay [8], the target named is DIP-η ectodomain (isoform B Gln31-Pro338) (Drosophila melanogaster). The assay can be described thus: AUC.
Assay [9] has as its target Dpr12 ectodomain (Dpr12C Ser72-Asp285) (Drosophila melanogaster). The assay can be described thus: AUC.
The target in assay [10] is DIP-ι ectodomain (Phe23-Ala325) (Drosophila melanogaster). The assay can be described thus: SPR.
Assay [11] addresses DIP-α ectodomain (isoform A Phe40-Pro341) (Drosophila melanogaster). The assay can be described thus: AUC.
Assay [12] concerns the target Dpr21 ectodomain (Asp48-Asp253) (Drosophila melanogaster). The assay can be described thus: AUC.

The Kd is the equilibrium constant for the complex coming apart. Read a high Kd as weaker binding. Substance “Dpr6 ectodomain (Dpr6C Trp70-Glu275) (domain or fragment)” yielded a Kd in assay [1] of 19.4 µM. “Dpr4 K82H ectodomain (domain or fragment)” returned a Kd in [2] of over 400 µM.

“DIP-ζ ectodomain (isoform A Glu111-Tyr412) (domain or fragment)”: the Kd in [3] came to 22.2 µM.

As to “Dpr4 K82H K136V ectodomain (domain or fragment)”, the fold weaker binding than wild-type Dpr4 in [4] and in assay [5] was over 4 fold throughout. In assay [2], this substance showed a dissociation constant Kd of 44.9 µM. As for “Dpr6 H110K ectodomain (domain or fragment)”, the fold decrease in binding against wild-type Dpr6 in assay [2] came to 25 fold. In the case of “Dpr14 ectodomain (Dpr14A Thr26-Glu283) (domain or fragment)”, the results for the Kd in assay [6] and in [7] were 69.2 µM and 106 µM, respectively.

Regarding “Dpr6 N102D H110K V164K ectodomain (domain or fragment)”, the Kd in assay [4] amounted to 72 µM; in [5], 119 µM.

Take “Dpr4 D74N A76T K82H K136V ectodomain (domain or fragment)”: the Kd in [2] is 16 µM. In turn, “DIP-η ectodomain (isoform B Gln31-Pro338) (domain or fragment)” came in with a Kd in assay [8] of 35.4 µM. For “Dpr12 ectodomain (Dpr12C Ser72-Asp285) (domain or fragment)”, in [9], the Kd was found to be 71.3 µM. Substance “Dpr11 ectodomain (Dpr11B Leu114-Glu324) (domain or fragment)” registered a Kd in assay [1] of 94 µM.

With “Dpr2 ectodomain (Dpr2F Tyr103-Glu323) (domain or fragment)”, the Kd came out at 41 µM in assay [5] and 22.4 µM in [10]. With “DIP-α ectodomain (isoform A Phe40-Pro341) (domain or fragment)”, the Kd in assay [11] amounted to 23.9 µM. In the case of “Dpr18 ectodomain (His214-Glu478) (domain or fragment)”, the Kd in assay [6] was 21.2 µM; in assay [7] it was 24.7 µM.

The substance “Dpr10 ectodomain (Dpr10D Trp50-Glu255) (domain or fragment)” gave a Kd in [1] of 54.9 µM. In assay [10], “Dpr7 ectodomain (Dpr7F Thr37-Glu269) (domain or fragment)” showed a dissociation constant Kd of 136 µM. In assay [12], “Dpr21 ectodomain (Asp48-Asp253) (domain or fragment)” showed a dissociation constant (Kd) of 49.1 µM.

Source of the values: PMC6309224.
